The text below walks through data of patent publication US20230220042A1 (SHANGHAI JIAO TONG UNIVERSITY SCHOOL OF MEDICINE, published 2023).

Numbering of substitutions follows the chain as printed. Numbers in names are those of the source.

One assay concerns the target Biotin-FcγRIIB (human) (UniProt P31994). Briefly: NGS of 3T3 display library Cmix flow-sorted for FcγRIIB binding.
The target in assay [1] is T1, Biotin-FcγRIIB (human, UniProt P31994 43-217, limits assumed, biotin-labelled).
T1 construct: Bought, biotin-labelled; used at 1 µg/ml for staining and sorting; also called human FcγRIIB; CD32b
T1 sequence (looked up): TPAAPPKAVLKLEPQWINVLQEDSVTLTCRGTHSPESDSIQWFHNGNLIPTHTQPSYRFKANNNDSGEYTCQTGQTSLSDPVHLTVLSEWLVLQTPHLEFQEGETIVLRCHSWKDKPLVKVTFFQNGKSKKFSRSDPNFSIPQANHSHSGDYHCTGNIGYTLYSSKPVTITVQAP
Briefly: FACS sorting of displayed Fc library on biotin-FcγRIIB, NGS.

Assay [2] deals with T1, Biotin-FcγRIIB. The assay can be described thus: magnetic sorting on biotin-FcγRIIB with unlabelled activating FcγRs, NGS; LibraryMix #4. The protocol:
(§1) 3T3 cells were collected by trypsin digestion, and a single cell suspension was prepared. […] The cells were incubated for 15 minutes on ice and then washed twice with MACS buffer and re-suspended in 100 μl MACS buffer. Twenty-five μl anti-Biotin magnetic beads were added, and the cells were incubated for 15 minutes on ice and then washed once with MACS buffer and re-suspended to 500 μl, and added to the LS column put in the magnetic field. The effluent was collected, washed with 3 mL of MACS buffer and collected; The LS column was then removed out of the magnetic field, and 5 mL of MACS buffer was used to rapidly elute the remaining cells from the sorting column to collect positive cells, which are the high I/A ratio cells.
(§2) The high-FcγRIIB-affinity cells obtained from the above flow cytometry sorting are further sorted by magnetic-activated sorting. The cells are incubated with the mixture of Biotin-labeled FcγRIIB and non-labeled activating FcγRs, and then the labeled cells are sorted by anti-Biotin magnetic beads. The enrichment ratios after sorting relative to before sorting are analyzed by NGS.

The target in assay [3] is T2, Biotin-FcγRIIB (human, UniProt P31994 43-217, limits assumed, biotin label).
T2 construct: Soluble labelled protein used to stain and sort the display cells; also called human FcγRIIB; CD32b
T2 sequence (looked up): T1 sequence (looked up)
Briefly: NGS of 3T3 display library IgG2_C01 flow-sorted for FcγRIIB binding. The source says:
Then flow cytometry is used for sorting the cells with high affinity to FcγRIIB for two to three rounds. […] IgG2_C01 is a combined mutation (Type I) library having at most 1 mutation in each of the four regions of P233-V240, V266-P271, S298-T299, and G327-I332; IgG2_C02 is a cell library made by combining the combined mutation (Type II) libraries of four regions of P233-V240, V266-P271, S298-T299 and G327-I332 together and transferring it into 3T3 cells.

In assay [4] the target is T1, Biotin-FcγRIIB. Briefly: magnetic sorting on biotin-FcγRIIB with unlabelled activating FcγRs, NGS; Library2. The procedure: as §1, §2

Consider “human IgG2 anti-mouse CD40 surface displayed antibody, V234M/S267E/S298G/I332L”, for which, in the assay with Biotin-FcγRIIB (human), the enrichment factor, percentage after 1st sorting/percentage before sorting was determined as 16.5; the enrichment factor, percentage after 2nd sorting/percentage after 1st sorting is 64.4; the enrichment factor, percentage after 3rd sorting/percentage after 2nd sorting is 0.66; the enrichment factor, percentage after 3rd sorting/percentage before sorting was 695. Moreover, in the assay with Biotin-FcγRIIB (human), the increased factor, mutant enrichment factor/wild-type enrichment factor worked out at 1850; the percentage after 1st sorting was 0.01%; the percentage after 2nd sorting was determined as 0.46%; the percentage after 3rd sorting was 0.3%. In the assay with Biotin-FcγRIIB (human), this molecule yielded a percentage before sorting of 0%.

B1: human IgG2 anti-mouse CD40 surface displayed antibody, Fc mutant P271G (antibody, name in EU numbering)
light chain (with the P2A rest): DTVLTQSPALAVSPGERVTISCRASDSVSTLMHWYQQKPGQQPKLLIYLASHLESGVPARFSGSGSGTDFTLTIDPVEADDTATYYCQQSWNDPWTFGGGTKLELKRTVAAPSVFIFPPSDEQLKSGTASVVCLLNNFYPREAKVQWKVDNALQSGNSQESVTEQDSKDSTYSLSSTLTLSKADYEKHKVYACEVTHQGLSSPVTKSFNRGECGSGATNFSLLKQAGDVEENPG
heavy chain: EVQLVESDGGLVQPGRSLKLPCAASGFTFSDYYMAWVRQAPTKGLEWVASISYDGSSTYYRDSVKGRFTISRDNAKSTLYLQMDSLRSEDTATYYCGRHSSYFDYWGQGVMVTVSSASTKGPSVFPLAPCSRSTSESTAALGCLVKDYFPEPVTVSWNSGALTSGVHTFPAVLQSSGLYSLSSVVTVPSSNFGTQTYTCNVDHKPSNTKVDKTVERKCCVECPPCPAPPVAGPSVFLFPPKPKDTLMISRTPEVTCVVVDVSHEDGEVQFNWYVDGVEVHNAKTKPREEQFNSTFRVVSVLTVVHQDWLNGKEYKCKVSNKGLPAPIEKTISKTKGQPREPQVYTLPPSREEMTKNQVSLTCLVKGFYPSDIAVEWESNGQPENNYKTTPPMLDSDGSFFLYSKLTVDKSRWQQGNVFSCSVMHEALHNHYTQKSLSLSPGKLEPPPSTVSNMATVAVLVVLGAAIVTGAVVAFVMKMRRRNTGGKGGDYALAPGSQTSDLSLPDCKVMVHDPHSLA
notes: as m1; positions are Eu numbers; copies: 2 + 2
Regarding B1, in the assay with Biotin-FcγRIIB [1], the “Increased factor b Site 1 (point mutation/wild-type)” value is 4.7 and the “Increased factor b Site 2 (point mutation/wild-type)” value is 4.7. In the assay with Biotin-FcγRIIB [2], the “Enrichment factor (percentage after sorting/percentage before sorting)” value was 3.66, the “Increased factor (mutation enrichment factor/wild-type enrichment factor)” value worked out at 3.89, the “Percentage after sorting/unbinding percentage” value is 19 and the “Percentage before sorting/unbinding percentage” value was found to be 5.18.

B2: human IgG2 anti-mouse CD40 surface displayed antibody, S267E/S298G (antibody, name in EU numbering)
light chain (with the P2A rest): B1 light chain (with the P2A rest)
heavy chain: B1 heavy chain with S262E, G266P, S293G
notes: As m1 with the Fc mutations
As to B2, in the assay with Biotin-FcγRIIB [3], the “enrichment factor, percentage after 1st sorting/percentage before sorting” value stood at 9.16 ratio; the “enrichment factor, percentage after 2nd sorting/percentage after 1st sorting” value was determined as 19.2 ratio; the “enrichment factor, percentage after 2nd sorting/percentage before sorting” value came to 176 ratio; the “increased factor, mutant enrichment factor/wild-type enrichment factor” value came to 207 ratio. In addition, in the assay with Biotin-FcγRIIB [3], the “percentage after 1st sorting” value was 0.01% and the “percentage after 2nd sorting” value worked out at 0.25%.

B3: human IgG2 anti-mouse CD40 surface displayed antibody, Fc mutant P238Q/S267E (antibody, name in EU numbering)
light chain (with the P2A rest): B1 light chain (with the P2A rest)
heavy chain: B1 heavy chain with P233Q, S262E, G266P
notes: as for B1
B3: in the assay with Biotin-FcγRIIB [2], the “Enrichment factor (percentage after sorting/percentage before sorting)” value was found to be 3.7, the “Increased factor (mutation enrichment factor/wild-type enrichment factor)” value was 3.93, the “Percentage after sorting/unbinding percentage” value turned out to be 4.36 and the “Percentage before sorting/unbinding percentage” value amounted to 1.18.

B4: human IgG2 anti-mouse CD40 surface displayed antibody, L328W (antibody, name in EU numbering)
light chain (with the P2A rest): B1 light chain (with the P2A rest)
heavy chain: B1 heavy chain with G266P, L323W
notes: As m1 with the Fc mutation
As for B4, in the assay with Biotin-FcγRIIB [3], the “enrichment factor, percentage after 1st sorting/percentage before sorting” value is 1.75 ratio; the “enrichment factor, percentage after 2nd sorting/percentage after 1st sorting” value came out at 4.26 ratio; the “enrichment factor, percentage after 2nd sorting/percentage before sorting” value worked out at 7.46 ratio; the “increased factor, mutant enrichment factor/wild-type enrichment factor” value came out at 8.78 ratio. In the assay with Biotin-FcγRIIB [3], the “percentage after 1st sorting” value stood at 0.25% and the “percentage after 2nd sorting” value was found to be 1.05%.

B5: human IgG2 anti-mouse CD40 surface displayed antibody, Fc mutant S267E/P329R (antibody, name in EU numbering)
light chain (with the P2A rest): B1 light chain (with the P2A rest)
heavy chain: B1 heavy chain with S262E, G266P, P324R
notes: as for B1
For B5, in the assay with Biotin-FcγRIIB [2], the “Enrichment factor (percentage after sorting/percentage before sorting)” value stood at 4.85, the “Increased factor (mutation enrichment factor/wild-type enrichment factor)” value is 5.16, the “Percentage after sorting/unbinding percentage” value was found to be 6.17 and the “Percentage before sorting/unbinding percentage” value was 1.27.

B6: human IgG2 anti-mouse CD40 surface displayed antibody, S267E/A330S (antibody, name in EU numbering)
light chain (with the P2A rest): B1 light chain (with the P2A rest)
heavy chain: B1 heavy chain with S262E, G266P, A325S
notes: As m1 with the Fc mutations
As to B6, in the assay with Biotin-FcγRIIB [3], the “enrichment factor, percentage after 2nd sorting/percentage after 1st sorting” value came out at 43.1 ratio; the “percentage after 1st sorting” value stood at 0%; the “percentage after 2nd sorting” value turned out to be 0.03%.

B7: human IgG2 anti-mouse CD40 surface displayed antibody, Fc mutant L328A (antibody, name in EU numbering)
light chain (with the P2A rest): B1 light chain (with the P2A rest)
heavy chain: B1 heavy chain with G266P, L323A
notes: as for B1
In the case of B7, in the assay with Biotin-FcγRIIB [2], the “Enrichment factor (percentage after sorting/percentage before sorting)” value was found to be 3.21 and the “Increased factor (mutation enrichment factor/wild-type enrichment factor)” value came to 3.41.

B8: human IgG2 anti-mouse CD40 surface displayed antibody, Fc mutant S267E (antibody, name in EU numbering)
light chain (with the P2A rest): B1 light chain (with the P2A rest)
heavy chain: B1 heavy chain with S262E, G266P
notes: as for B1
Turning to B8, in the assay with Biotin-FcγRIIB [1], the “Increased factor b Site 1 (point mutation/wild-type)” value amounted to 28.5. For the same molecule, in the assay with Biotin-FcγRIIB [2], the “Enrichment factor (percentage after sorting/percentage before sorting)” value amounted to 2.86, the “Increased factor (mutation enrichment factor/wild-type enrichment factor)” value is 3.04, the “Percentage after sorting/unbinding percentage” value came out at 52.6 and the “Percentage before sorting/unbinding percentage” value is 18.4.

B9: human IgG2 anti-mouse CD40 surface displayed antibody, P233G/S267E/S298G (antibody)
light chain (with the P2A rest): B1 light chain (with the P2A rest)
heavy: B1 heavy chain with P229G, S262E, G266P, S293G
notes: As m1 with the Fc mutations; copies: 2 + 2
On to B9, for which, in the assay with Biotin-FcγRIIB [3], the “enrichment factor, percentage after 1st sorting/percentage before sorting” value worked out at 7.13 ratio; the “enrichment factor, percentage after 2nd sorting/percentage after 1st sorting” value turned out to be 38.5 ratio; the “enrichment factor, percentage after 2nd sorting/percentage before sorting” value was determined as 274 ratio; the “increased factor, mutant enrichment factor/wild-type enrichment factor” value turned out to be 323 ratio. Moreover, in the assay with Biotin-FcγRIIB [3], the “percentage after 1st sorting” value is 0.01% and the “percentage after 2nd sorting” value turned out to be 0.2%.

B10: human IgG2 anti-mouse CD40 surface displayed antibody, Fc mutant L328P (antibody, name in EU numbering)
light chain (with the P2A rest): B1 light chain (with the P2A rest)
heavy chain: B1 heavy chain with G266P, L323P
notes: as for B1
With B10, in the assay with Biotin-FcγRIIB [2], the “Enrichment factor (percentage after sorting/percentage before sorting)” value worked out at 2.16, the “Increased factor (mutation enrichment factor/wild-type enrichment factor)” value stood at 2.3, the “Percentage after sorting/unbinding percentage” value was determined as 29.6 and the “Percentage before sorting/unbinding percentage” value was 13.7.

B11: human IgG2 anti-mouse CD40 surface displayed antibody, P233G/S267E (antibody)
light chain (with the P2A rest): B1 light chain (with the P2A rest)
heavy: B1 heavy chain with P229G, S262E, G266P
notes: as for B9
Consider B11, for which, in the assay with Biotin-FcγRIIB [3], the “enrichment factor, percentage after 1st sorting/percentage before sorting” value came out at 3.31 ratio; the “enrichment factor, percentage after 2nd sorting/percentage after 1st sorting” value was 5.47 ratio; the “enrichment factor, percentage after 2nd sorting/percentage before sorting” value was found to be 18.1 ratio; the “increased factor, mutant enrichment factor/wild-type enrichment factor” value came to 21.3 ratio. In addition, in the assay with Biotin-FcγRIIB [3], the “percentage after 1st sorting” value stood at 0.01% and the “percentage after 2nd sorting” value came to 0.05%.

B12: human IgG2 anti-mouse CD40 surface displayed antibody, Fc mutant P271G/I332L (antibody, name in EU numbering)
light chain (with the P2A rest): B1 light chain (with the P2A rest)
heavy chain: B1 heavy chain with I327L
notes: as for B1
As for B12, in the assay with Biotin-FcγRIIB [2], the “Enrichment factor (percentage after sorting/percentage before sorting)” value amounted to 2.82, the “Increased factor (mutation enrichment factor/wild-type enrichment factor)” value is 3, the “Percentage after sorting/unbinding percentage” value worked out at 16 and the “Percentage before sorting/unbinding percentage” value stood at 5.66.

B13: human IgG2 anti-mouse CD40 surface displayed antibody, Fc mutant P271V (antibody, name in EU numbering)
light chain (with the P2A rest): B1 light chain (with the P2A rest)
heavy chain: B1 heavy chain with G266V
notes: as for B1
Regarding B13, the “Increased factor b Site 2 (point mutation/wild-type)” value with Biotin-FcγRIIB [1] worked out at 0.7. In addition, in the assay with Biotin-FcγRIIB [4], the “Enrichment factor (percentage after sorting/percentage before sorting)” value was 3.52, the “Increased factor (mutation enrichment factor/wild-type enrichment factor)” value was found to be 4.24, the “Percentage after sorting/unbinding percentage” value came out at 1090 and the “Percentage before sorting/unbinding percentage” value came to 311.

B14: human IgG2 anti-mouse CD40 surface displayed antibody, Fc mutant L328W (antibody, name in EU numbering)
light chain (with the P2A rest): B1 light chain (with the P2A rest)
heavy chain: B1 heavy chain with G266P, L323W
notes: as for B1
On to B14, for which, in the assay with Biotin-FcγRIIB [2], the “Enrichment factor (percentage after sorting/percentage before sorting)” value turned out to be 4.26 and the “Increased factor (mutation enrichment factor/wild-type enrichment factor)” value amounted to 4.53.
